# Assay: label from the status in PepcDB records
row,Sequence,protein production
1,MRNKQSLVFLASSLFLLILAPITSEAISNPSTNINEVNREIVEESANDQATSAPSHSETLEQEPSLETTTTTDNHPAETDQSTATLEPSEQQKDDGTSATESVIVEPQPRMLAAPYATSLPDDPNIIPIDKVFQEPIGNATSILEGGKLLQLNPAVKSQKGAIWSKKPISLLSDFTFKSYLYLGNEYANAGDGMTFTLTNDPRMSTTPQEVIGSPGMGIGAYSTKAGQPYVRNALSIEFDTYKNTGSSNRMDREISQDKGNGHLAFVTPKANNNNYTGEHSGVTVAPTYLSNGTWRMLTVHWNAATKALTYDLEGVGTNTYVVSDLNAQFGATTVYWGFTSSTGGKYQENALAMTQIPTNVTSQAALSVNGQEFSSAVEAVKNDQVRLRNTLNIDNDFIEDRQPQVSIDLPDELAYEENSLTIDGKKVAAKDLTQTGNHLTIALNDYLVLKKDMMIELKTTLQDNTPEKVLTMNFDYYEEGTLLQKSNNVTITIPKPTEKTVTVFYKDAEGKDIAPPKSVTGKIGAPYQEKPLDISGYVFTKDSGNAEGTMTEETKDIYFYYRLGELYFKEAPKQITFGTEKIRNQPLIKLGHPTEGLKVVDERNANNWRLQLKQTQPLTNDSIVMPDVFSFVSTAGSSQITNEAITLLESNQKGETDLTALLDESKQQGIQINVPVAYQRVGTFKARLSWALEDVPGN,failed
2,MIIGLLNQKGGVGKTTLSVNLAASFARTGARVLLIDVDPQGSALDWAAAREGAPLFPVVGLPRATVHKEITQIGHNYDHIIIDGPPRVTDLARSALMASDFVLIPVQPSPYDIWAADGIVKLIDEARVYKENLKSAFVINRKIVNTAIGRDVGEALGVYPVHVLSANVAQRVIFAEAATQGKTVYEVDKQGLAAAEIEAVAAEIKELAQLEHHHHHH,not failed
3,MPEPHAVLYVTNELSHIVKNEFLPIWKLTGDESLNDLWLENGKYATDVYAYGDVSKWTIRQLRGHGFIFISTHKNVQLADIIKTVDVRVPREVARSHDMKAFENEIGRRRIRMRKGFGDALRNYAFKMAIEFHGSEAETLNDANPRLHKIYGMPEIPPLYMEYAEIGTRFDDEPTDEKLVSMLHYIVYSAEEVHYIGCGDLRTLMQFKKRSPGRFRRVLWHVYDPIAPECSDPNVIVHNIMVDSKKDILKHMNFLKRVERPFIWDVSSDRSQMNDHEWETTRFAEDRLGEEIAYEMGGAFSSALIKHRIPNSKDEYHCISTYLFPQPGADADMYELRNFMRLRGYSHVDRHMHPDASVTKVVSRDVRKMVELYHGRDCGSFLKKRLFEHLHIVRKNGLLHESDEPRADLFYLTNRCNMGLEPSIYEVMKKSVIATAWVGRAPLYDYDDFALPRSTVMLNGSYRDIRILDGNGAILFLMWRYPDIVKKDLTYDPAWAMNFAVSLKEPIPDPPVPDISLCRFIGLRVESSVLRVRNPTLHETADELKRMGLDLSGHLYVTLMSGAYVTDLFWWFKMILDWSAQNREQKLRDLKRSAAEVIEWKEQMAERPWHVRNDLIAALREYKRKMGMREGASIDSWLELLRHL,not failed
4,MSYDVIVRNGLWFDGTGRPPQVRTLGIRDGVVATVSAKPLDETGCPEVIDAGGKWVVPGFIDVHTHYDAEVLLDPGLRESVRHGVTTVLLGMCSLSTVYSDAEDAADLFSRVEAVPRQFVLGALESRKTWSNPAEYVAAIDALPLGPNIASLLGHSDLRASVLGLDRATTRGVVPTDDELETMADRLDAALDAGMLGMSGMDAAIDKLDGDRFRSRALPSTFATWRERRRLIKVLRKRGRILQSAPNVAKAQEALNFFLESSSLFGRRRGVRMSLLVSADAKSSPGAARVIGMGTRLLNKTLDAKVRFQHLPVPFELYSDGIDLPVFEEFGAGTAALHLRDQLERNKLLADPEYRRRFRRSFDRRKLGPTLWHRDFHDATIVECPDESLIGKTFGRIADERGIHPLDAFLDVLVDNGEKNVRWTTIVANHRPKVLDQLANDPAVHMGFSDAGAHLRNMAFYNYPLRLLKRVRDAQLSGRPFLTTERAVYRLTAEVADWFGVDAGTLREGDRADFVVIDPNCLNSDVDAYHEETVPFYGGLSRMVNRNDDAVVATAVNGTVVFGKGEFRDGYGDTVKSGRYLRAGADSRLKTAVLEHHHHHH,failed
5,SREPVDILREQKINAEWALKQQSDKLAAQFDNMDDAYLRERKQDMLQVVRRIHNNLIGQGNELEVADNLFDETVLIANDLSPADTVLFKEQR,failed
6,MDMYSMKISEGVERIDGVTANSYLLTLDGKNILIDTGTAGGGKKIIDYFNKNGTKPDYVIVTHHHADHVGGLKEISERFNPEIYVPDLEMKIIRGEEDPPKPRSFFGRMITGMLKFEPVKDVKPVSKASIPGIEEMATPGHTIGSTSYIVEDLHILFSGDAAVESGGELKINKSFSYEINSAERSLEIIKGMKGYLVLPGHGDKVQLLEHHHHHH,not failed
7,VVFFRHLVSDDGSVRHTGDNLVGGVGQGGDDEAILVDLQRVPVHIDQIVFTVNSFTGQTFQEVQNAFCRLVDETNGQELARYTLAGGGAFTAQIMAKVHRAGQGWSMTAIGTPANGRTFQDLMPAILPVL,failed
8,MIIVHHLNNSRSQRILWLLEELGLPYEIKRYQRDPKTNLAPPELKAIHPLGKSPVIEDGPHVVIESGAIVDYLIRRHGDGRLQPDPASATYDEYVQWLHFAEGSAILPLMLNLYVGRLGDAGAPLHPRIHSELANYLGYLNEALGLTPYLLGDELSGADIQMSFIGEFAKMQGMLQPHPNLAAWVQRCQERPAYRQALEQGGEYSFAK,failed
9,MSPMTIPSEMKALLLVGDGYTKTPSGSALEAMEPYLEQGRIAVPAPGPSQVLIKVNLASINPSDVAFIKGQYGQPRVKGRPAGFEGVGTIVAGGDEPYAKSLVGKRVAFATGLSNWGSWAEYAVAEAAACIPLLDTVRDEDGAAMIVNPLTAIAMFDIVKQEGEKAFVMTAGASQLCKLIIGLAKEEGFRPIVTVRRDEQIALLKDIGAAHVLNEKAPDFEATLREVMKAEQPRIFLDAVTGPLASAIFNAMPKRARWIIYGRLDPDATVIREPGQLIFQHKHIEGFWLSEWMRQFKERRGPAILEAQKRFSDGRWSTDVTAVVPLAEAIAWVPAELTKPNGKVFIRP,not failed
10,MDKNTRVGKRKKRNKAMRIFWSVMAVILVAIGGFALYEYNTVKNAADTAYRSGGLGNAENGSKNSVISNSKPIAILLMGTDTGALGRTYKGRTDSIMVAVLNPKTKKTTLVSFERDQQVNLPDYPENSPSKLNAAYAYGNAKELAKVLKKYYNIPINAYVLINMGGLKTIVNKVVGVDIAPILSFSYEGYTFTKGKTTHMDGAKALAYSRMRYDDPEGDYGRQKRQRQVLSALLNKAESATTLLNSSFISSLSKQVQTDFTFSDMTSMAKRYLAATKDLKTDYTHGTSYMQDGVSYQKVSVSERQRISNLIRKTLGLKTKTVSTDSIDTSTSSSSSSSSTTTDSDTTGGAGNTAGPSDNGAAAGNGADSGTTGGYSAGNDQNNSTGY,failed
11,MGCICFKSWRRSSSSPSITSTVIDDLENVREYDADDDGGHYPLIFREFSLEQLRIATDGFSAGNIVSEHNDSVPNIVYKGKLGDGRRIAVKRFQRLSWPDPFEFINEAQAVGRLRSEHMANLIGCCCDDNERLLVAEYMPNGTLAKHLFHWEKRPMKWEMRLKVALHTARALEYCNDKGIDLYHDLNPYRIMFDKTGIPKLSCFGLMKNSHEGKIYSTNLAFAPPEYLRLGTVIAESVTFSFGTLLLDLMSGRHIPPNHALDLFRGKNYLVLMDSALDGQFSDEDRTELIHVASRCFKTEPEERPSIKFLKATLSRLQKRAKLCPINVKRPMSPPSKNLPEKTKPATESLKLTPFGDACSRADLSSIHELLEKLGYEEDNGVGNEFSFQMWTGEMQENMDYKKHGDAAFLAKDFDTAIEFYTEFMTGAPTVSPTVLARRCLCYLMTEMFSEALSDAMQAQVASPEWPIPLYLQAACLFKLEMEAEAKEALRHGSALEAY,failed
12,MLILKNSMASPHPFPWPQRFTVMALTFAWGLSLPVLAQTKSAVQWYNDGVDKLAAQNFSGAIADFTESIKLNDQDADAYYNRGYAKHVLGQYQAAITDYNQAISLNPEFAYALGNRCYAYFLLSQYDKAIQDCSNAIEINPNYADFYVYRGNSQSQLGNETTAIADYNDAIRINAQHANAYYNRALTHNRLKQDQQALADYNQSIQLDPDSAEAYFNRGLTQYRLGDEPKAIADLTKAAELFNAQEKKDMAQKAEAILTQIRAIDA,failed
13,MRPIKLLPDGLISQIAAGEVIERPASVLKELLENAIDAGTTDISVNIAQGGLKLIRVTDNGGGISGEELPLALTRHATSKIASQEDLYRITSLGFRGEGLASIASVSNLLLISHQPGGKHAWQIRSEGIRVMQPEPSSHAAGTTVEVRDLFFNLPARRKFLKTEATEFAHCEEIIRRMALSHAGIAFTLRHNGNLRGHWQSAEAAVRIKTVLGEEFTRSAAWIDERSAGIGLQGMLALPAYSRAARDMQYFFVNGRFVRDKLITHALREAYRDVLHLDRHAAFVLYLDIDPEQVDVNVHPTKTEIRFREARAIHQFIYHGVSKALSLPRSGTELSQSSSQLMADDIVPPAEKRVPAAPMLNYPRQTGLPSEMIAQPFNFYQVLSGSESDSTATQNPFRQTGAGESNEHPALPPLGFALGQLHGVYILAQNWKGLVIVDMHAAHERIVYEQLKLQMDEQTLSAQRLLIPVTFHADSLDIATAEENQSLLQQLGFEVTVLTATTLAVRAVPAILQDADTEKLVCNVLDEIRNGDPGQLLAARRNELLATMACHGAVRANRPLTLIEMNELLRKMEVTERSDQCNHGRPTWFEISLAELDKMFMRGK,failed
14,MNLHTKTWVQRLPVPIDVAWDFFSQPGNLARITPPEMMLKAEGGNAGTAIYEGMKLNFVLYPFMMIPVRWTTEIMKVSKPDFFEDRQLSGPYEQWYHRHLFRDIEGGTEMTDIVEYALPFDLFGEVVEALIVGPRLDEVFEYRRCRVAEILGEMASETRLEHHHHHH,not failed
15,THSVETPYGSVTFTVYGTPKPKRPAIFTYHDVGLNYKSCFQPLFRFGDMQEIIQNFVRVHVDAPGMEEGAPVFPLGYQYPSLDQLADMIPCILQYLNFSTIIGVGVGAGAYILSRYALNHPDTVEGLVLINIDPNAKGWMDWAAHKLTGLTSSIPDMILGHLFSQEELSGNSELIQKYRGIIQHAPNLENIELYWNSYNNRRDLNFERGGETTLKCPVMLVVGDQAPHEDAVVECNSKLDPTQTSFLKMADSGGQPQLTQPGKLTEAFKYFLQG,not failed
16,MPRRDLLDLLALAAVWGGSFLFMRVAVPEFGPAALMELRVGLAALFLLPLALWRGKPALIARHWKAILVVGTLNSALPFLLYAYAAQSLGAGFLSVANAVTPVWGAVIGWLWLGDRLPRMRALGLLISLSGIIVLVWDKLDFHDGGTGPAVLAAISAPVFYGMAANWTKRYLGHVDALTNATGSMVAASLVLAPLAIIHWPEQAVSFEAWRATVLLAIVCTGAAYIVFFRLIARVGPTAAVSVTFLVPVFGVLWGVWFLDEAVTPRILAGAGVILVGTALALGLVGARRVAAAD,failed
17,MTVKAVFFDIDGTLLNDRKNIQKTTQKAIQQLKKQGIMVGLATGRGPGFVQPFLENFGLDFAVTYNGQYILTRDKVLYQNQLPKSMIYKVIRYANEKKREISLGTASGLAGSRIIDMGTSPFGQVISSFVPKSWARTVEGSFKHLIRRIKPQSFRNLVTIMREPIYQVVLVASQAETKKIQEKFPHIKITRSSPYSLDLISVDQSKIKGIERLGEMFGFDLSEVMAFGDSDNDLEMLSGVGIGIAMGNAETVVKDGAHFTTDSNNNDGISKALAHYGLIH,failed
18,MSILQGILDTYAQFFDLDMWIKVLQDPVSWGLIGTLVVLEGLLSADNALVLAVMVKHLPEEKRKKALFYGLIGAYVFRFIAIGIGMFLIKLAWVKVLGALYLAWLSVKYFIDKRKGNAEEEEAHGMNQNSILFRMFGVFWGTVAMVELMDIAFSVDSVLAAFGVSNEVWILLLGGMLGILMMRGIAGVFLKLLERIPELETTAYILILIIAAKMLLSVIHIEISHTVFFIILVVAFGATFILHYMKNSGQAKEEVAATKEDNK,failed
19,QGHWFAIHSGTLGIMVNVDALGGLPVPQSWADLLKPEYKGMVGYLDPSSAFVGYVSAVAINQAMGGSLDNFGPAIDYFQKLAKNSPIVPKQTAYARALSGELPILVDYDFNAYRARYKDKANVAFVIPKEGTIGVPYVMSMVAKAPHRANAEKVLDFVLSDAGQALWAKAYLRPVR,failed
